# From the Immune Epitope Database (IEDB)
# Legend:
# HLA-B*07:02 = assay: IEDB peptide-MHC binding, purified MHC/competitive/radioactivity; filed as Kd, often an IC50 or EC50 that approximates it; ≥ and ≤ were set here for values at or beyond the usual limits of such assays
# HLA-B*35:01 = assay: as above
# HLA-B*51:01 = assay: as above
# HLA-B*53:01 = assay: as above
# HLA-B*54:01 = assay: as above
# HLA-A*02:01 [1] = assay: IEDB peptide-MHC binding, purified MHC/competitive/fluorescence; filed as Kd, often an IC50 or EC50 that approximates it; ≥ and ≤ were set here for values at or beyond the usual limits of such assays; details: source organism: Vaccinia virus L-IPV
# HLA-A*02:02 = assay: IEDB peptide-MHC binding, purified MHC/competitive/radioactivity; filed as Kd, often an IC50 or EC50 that approximates it; ≥ and ≤ were set here for values at or beyond the usual limits of such assays; details: source organism: Vaccinia virus Copenhagen
# HLA-A*02:03 = assay: as above; details: source organism: Vaccinia virus Copenhagen
# HLA-A*02:06 = assay: as above; details: source organism: Vaccinia virus Copenhagen
# HLA-A*03:01 [2] = assay: as above; details: source organism: Vaccinia virus Copenhagen
# HLA-A*11:01 [3] = assay: as above; details: source organism: Vaccinia virus Copenhagen
# HLA-A*31:01 [4] = assay: as above; details: source organism: Vaccinia virus Copenhagen
# HLA-A*33:01 = assay: as above; details: source organism: Vaccinia virus Copenhagen
# HLA-A*68:01 = assay: as above; details: source organism: Vaccinia virus Copenhagen
# HLA-B*15:03 = assay: as above; details: source organism: Vaccinia virus WR
# HLA-A*30:01 = assay: as above; details: source organism: Vaccinia virus WR
# HLA-A*32:01 = assay: as above; details: source organism: Vaccinia virus WR
# HLA-B*08:01 = assay: as above; details: source organism: Vaccinia virus WR
# HLA-A*03:01 [5] = assay: IEDB peptide-MHC binding, purified MHC/direct/fluorescence; filed as Kd, often an IC50 or EC50 that approximates it; ≥ and ≤ were set here for values at or beyond the usual limits of such assays
# HLA-A*11:01 [6] = assay: as above
# HLA-A*31:01 [7] = assay: IEDB peptide-MHC binding, purified MHC/competitive/fluorescence; filed as Kd, often an IC50 or EC50 that approximates it; ≥ and ≤ were set here for values at or beyond the usual limits of such assays
# HLA-A*02:01 [8] = assay: IEDB peptide-MHC binding, purified MHC/competitive/radioactivity; filed as Kd, often an IC50 or EC50 that approximates it; ≥ and ≤ were set here for values at or beyond the usual limits of such assays; details: source organism: Lassa virus Josiah
# [9] = source organism: Vaccinia virus WR
# [10] = source organism: Vaccinia virus Copenhagen
# [11] = source organism: Triticum aestivum
# [12] = source organism: Mammarenavirus juninense
# [13] = source organism: SARS coronavirus Tor2
# [14] = source organism: Orthohantavirus dobravaense
sequence,measurement,setting,value
MPTDMLKLF,Kd,HLA-B*07:02; [9],17.8 nM
same,Kd,HLA-B*35:01; [9],0.163 nM
same,Kd,HLA-B*51:01; [9],99.2 nM
same,Kd,HLA-B*53:01; [9],0.141 nM
same,Kd,HLA-B*54:01; [9],28.6 nM
NLFDIPLLTV,Kd,HLA-A*02:01 [1],≤ 0.1 nM
same,Kd,HLA-A*02:02,0.0997 nM
same,Kd,HLA-A*02:03,0.253 nM
same,Kd,HLA-A*02:06,1.55 nM
same,Kd,HLA-A*03:01 [2],≥ 48000 nM
same,Kd,HLA-A*11:01 [3],≥ 69800 nM
same,Kd,HLA-A*31:01 [4],≥ 22300 nM
same,Kd,HLA-A*33:01,11800 nM
same,Kd,HLA-A*68:01,≥ 21900 nM
same,Kd,HLA-B*07:02; [10],17100 nM
same,Kd,HLA-B*35:01; [10],≥ 69900 nM
same,Kd,HLA-B*51:01; [10],≥ 69600 nM
same,Kd,HLA-B*53:01; [10],≥ 69900 nM
same,Kd,HLA-B*54:01; [10],18800 nM
NMGVAMNLF,Kd,HLA-B*15:03,998 nM
PPCQCTVQEF,Kd,HLA-B*07:02; [9],≥ 45300 nM
same,Kd,HLA-B*35:01; [9],≥ 23400 nM
same,Kd,HLA-B*51:01; [9],≥ 69600 nM
same,Kd,HLA-B*53:01; [9],5150 nM
same,Kd,HLA-B*54:01; [9],≥ 69900 nM
QPEKEIPEY,Kd,HLA-B*07:02; [9],≥ 36900 nM
same,Kd,HLA-B*35:01; [9],15.6 nM
same,Kd,HLA-B*51:01; [9],≥ 37700 nM
same,Kd,HLA-B*53:01; [9],45.2 nM
same,Kd,HLA-B*54:01; [9],≥ 43700 nM
QPFRPQQPY,Kd,HLA-B*07:02; [11],≥ 77500 nM
same,Kd,HLA-B*35:01; [11],296 nM
same,Kd,HLA-B*51:01; [11],≥ 77500 nM
same,Kd,HLA-B*53:01; [11],≥ 35200 nM
same,Kd,HLA-B*54:01; [11],≥ 78100 nM
RKNHIYNSF,Kd,HLA-B*15:03,0.132 nM
RQFEKDRSF,Kd,HLA-B*15:03,0.143 nM
RSKDTHVFA,Kd,HLA-A*30:01,0.0187 nM
same,Kd,HLA-B*15:03,182 nM
SQRFIFNII,Kd,HLA-A*32:01,1870 nM
same,Kd,HLA-B*08:01,653 nM
same,Kd,HLA-B*15:03,299 nM
TPDNFSSLI,Kd,HLA-B*07:02; [12],11300 nM
same,Kd,HLA-B*35:01; [12],15300 nM
same,Kd,HLA-B*51:01; [12],1710 nM
same,Kd,HLA-B*53:01; [12],372 nM
same,Kd,HLA-B*54:01; [12],≥ 78100 nM
TPKYKFVRI,Kd,HLA-B*07:02; [13],≥ 10000 nM
same,Kd,HLA-B*35:01; [13],≥ 77400 nM
same,Kd,HLA-B*51:01; [13],16100 nM
same,Kd,HLA-B*53:01; [13],16000 nM
same,Kd,HLA-B*54:01; [13],≥ 46200 nM
TPLISFFGLF,Kd,HLA-B*07:02; [9],1140 nM
same,Kd,HLA-B*35:01; [9],416 nM
same,Kd,HLA-B*51:01; [9],4970 nM
same,Kd,HLA-B*53:01; [9],31.1 nM
same,Kd,HLA-B*54:01; [9],3960 nM
VLFMVAWGK,Kd,HLA-A*03:01 [5]; source organism: Amur virus,2260 nM
same,Kd,HLA-A*11:01 [6]; source organism: Amur virus,76 nM
same,Kd,HLA-A*31:01 [7]; source organism: Hantaan virus 76-118,161 nM
VLKGLYNFA,Kd,HLA-A*02:01 [8],6250 nM
VPEFAKQYV,Kd,HLA-B*07:02; [9],128 nM
same,Kd,HLA-B*35:01; [9],≥ 32600 nM
same,Kd,HLA-B*51:01; [9],718 nM
same,Kd,HLA-B*53:01; [9],5150 nM
same,Kd,HLA-B*54:01; [9],1600 nM
VQSFKINIF,Kd,HLA-B*15:03,51.3 nM
VTYDYIIPK,Kd,HLA-A*03:01 [5]; [14],50.8 nM
same,Kd,HLA-A*11:01 [6]; [14],1.2 nM
same,Kd,HLA-A*31:01 [7]; source organism: Kurkino virus,42.4 nM
VVYIILAPK,Kd,HLA-A*11:01 [6]; source organism: Mycobacterium tuberculosis,27.4 nM
same,Kd,HLA-A*31:01 [7]; source organism: Mycobacterium leprae,300 nM
YQHFVARVF,Kd,HLA-B*15:03,0.399 nM
